From publication PMC11189929, “Non-consecutive enzyme interactions within TCA cycle supramolecular assembly regulate carbon-nitrogen metabolism” (Nature Communications, 2024) come the findings set out here.

One data set addresses T1, Escherichia coli MDH (Escherichia coli, UniProt P61889).
T1 construct: C-terminal His6 tag, pET24a, expressed in E. coli BL21(DE3)
T1 sequence (P61889 1-312): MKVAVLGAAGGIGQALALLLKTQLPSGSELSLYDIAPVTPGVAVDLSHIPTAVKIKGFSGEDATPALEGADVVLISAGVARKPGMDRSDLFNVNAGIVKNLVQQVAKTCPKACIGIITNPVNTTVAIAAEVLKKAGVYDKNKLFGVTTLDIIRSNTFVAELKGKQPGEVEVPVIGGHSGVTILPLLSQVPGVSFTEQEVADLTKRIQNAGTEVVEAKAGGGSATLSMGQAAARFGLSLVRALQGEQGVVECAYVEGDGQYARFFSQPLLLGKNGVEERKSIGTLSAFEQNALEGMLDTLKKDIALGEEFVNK
More on the design: Purified MDH activity, NADH oxidation at 340 nm with varied oxaloacetate, 150 uM NADH, pH 7.4, Michaelis-Menten fit. As to conditions: substrate; read-out: KM (oxaloacetate). As for the experimental part:
(§1) Determination of MDH activity was based on spectroscopic assays (30). […] Specifically, a range of oxaloacetate (Sigma) concentrations (7.5–250 µM), 150 µM NADH (Sigma), 5 nM MDH in 0.1 M sodium phosphate buffer, pH 7.4 were used. […] The catalytic parameters, kcat and KM, were calculated by fitting the data using non-linear regression to Michaelis-Menten equation, v0 = (kcat·[E]·[S])/(KM + [S]), where v0 is initial velocity, [E] is MDH concentration, [S] is […]. Original and mutated mdh genes used in the study are summarized in Supplementary Data 1. B. subtilis mdh gene was amplified by PCR from the chromosomal DNA of B. subtilis PY79. Nucleotide sequences of orthologous mdhs were collected from the KEGG database (https://www.genome.jp/), synthesized by GENEWIZ^© and cloned into i) pHT254 B. subtilis expression vector (MoBiTec Molecular Biotechnology), and ii) pET24a E. coli expression vector (Merck-Novagen) using Gibson assembly. […] All MDH proteins were tagged with Hisx6t at the C-terminal end. Mdh genes cloned into pHT254 plasmid were transformed into B. subtilis PY79. Mdh genes cloned into pET24a plasmid were transformed into E. coli Bl21(DE3) strain.

Substrate in data set [1]: O=C(O)CC(=O)C(=O)O
The data set is described as follows: purified protein, by the assay type. More on the design: Purified MDH activity, NADH oxidation at 340 nm with varied oxaloacetate, 150 uM NADH, pH 7.4, Michaelis-Menten fit. The conditions noted are these: pH 7.4. As for the experimental part:
as §1

Data set [2] has as its target T2, isocitrate dehydrogenase (ICD) from Bacillus subtilis (B. subtilis) (UniProt P39126).
T2 sequence: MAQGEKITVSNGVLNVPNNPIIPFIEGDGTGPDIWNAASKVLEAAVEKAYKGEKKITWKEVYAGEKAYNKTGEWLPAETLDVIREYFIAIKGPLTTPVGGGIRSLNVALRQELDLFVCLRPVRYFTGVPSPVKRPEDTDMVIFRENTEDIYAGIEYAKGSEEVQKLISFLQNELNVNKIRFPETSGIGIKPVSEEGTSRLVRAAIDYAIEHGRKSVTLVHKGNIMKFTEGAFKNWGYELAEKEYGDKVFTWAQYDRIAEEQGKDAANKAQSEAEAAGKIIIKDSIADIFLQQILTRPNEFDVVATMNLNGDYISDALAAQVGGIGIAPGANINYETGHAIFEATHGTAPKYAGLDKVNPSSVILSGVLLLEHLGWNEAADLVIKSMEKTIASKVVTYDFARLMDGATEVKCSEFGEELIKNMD

For data set [3], the target named is T2, isocitrate dehydrogenase (ICD) from Bacillus subtilis (B. subtilis). This is another data set of the same source.
Substrate in data set [4]: O=C(O)CC(=O)C(=O)O
The data set is described as follows: purified protein. The conditions noted are these: 150 uM NADH, oxaloacetate 7.5-250 uM, 5 nM MDH, 0.1 M sodium phosphate pH 7.4. In kind it is biochemical, Bacillus subtilis.

Substrate in data set [5]: O=C(O)CC(=O)C(=O)O
The data set is described as follows: purified protein. As to conditions: 150 uM NADH, oxaloacetate 7.5-250 uM, 5 nM MDH, 0.1 M sodium phosphate pH 7.4. It is filed as biochemical, Oceanobacillus iheyensis.

Broadly, the Km is the concentration of substrate that gives half-maximal velocity. By kcat is commonly meant the number of substrate molecules converted per active site and unit of time at saturation. As a reminder, the kcat/Km is the second-order rate constant that governs catalysis at low substrate concentration.

In the case of `O=C(O)CC(=O)C(=O)O` [oxaloacetate], the Km at Escherichia coli MDH is 39 µM.

B1: Geobacillus kaustophilus MDH (Geobacillus kaustophilus HTA426) (protein)
chain: MAMKRKKISVIGAGFTGATTAFLLAQKELGDVVLVDIPQLENPTKGKALDMLEASPVLGFDANIIGTSDYADTADSDIVVITAGIARKPGMSRDDLVTTNQKIMKQVTKEVVKYSPNCYIIVLTNPVDAMTYTVFQESGFPKNRVIGQSGVLDTARFRTFVAEELNISVKDVTGFVLGGHGDDMVPLVRYSYAGGIPLEKLIPKDRLDAIVERTRKGGGEIVNLLGNGSAYYAPAASLVEMVEAILKDQRRILPAIAYLEGEYGYEGIYLGVPTILGGNGIEKVIELELTEEEKAALAKSVESVKNVMRMLE
notes: C-terminal His6 tag, pET24a, expressed in E. coli BL21(DE3)
Consider B1, for which, in data set [1], the Km was 54 µM, the kcat was 59 s⁻¹ and the kcat/Km came to 1.1e+06 M⁻¹ s⁻¹.

B2: malate dehydrogenase (MDH) from Bacillus subtilis (enzyme)
chain: MGNTRKKVSVIGAGFTGATTAFLIAQKELADVVLVDIPQLENPTKGKALDMLEASPVQGFDAKITGTSNYEDTAGSDIVVITAGIARKPGMSRDDLVSTNEKIMRSVTQEIVKYSPDSIIVVLTNPVDAMTYAVYKESGFPKERVIGQSGVLDTARFRTFVAEELNLSVKDVTGFVLGGHGDDMVPLVRYSYAGGIPLETLIPKERIDAIVERTRKGGGEIVNLLGNGSAYYAPAASLTEMVEAILKDQRRVLPTIAYLEGEYGYEGIYLGVPTIVGGNGLEQIIELELTDYERAQLNKSVESVKNVMKVLS
The molecule B2 came in with a partitioning of 2-oxoglutarate towards the droplet phase against the continuous phase, droplets with 1:500 molar excess of MDH, after 40 min of incubation in data set [2] of 2 fold. Besides, in data set [3], the rate of 2-oxoglutarate formation by ICD within BSA/PEG LLPS droplets, MDH/ICD molar ratios 1:1, 10:1, 50:1, 100:1, 250:1 and 500:1 (~10% enhancement at 10:1; plateau at and above 250:1) amounted to 180%.

B3: B. subtilis MDH (BsMDH) (Bacillus subtilis subsp. subtilis str. 168) (protein)
chain: GNTRKKVSVIGAGFTGATTAFLIAQKELADVVLVDIPQLENPTKGKALDMLEASPVQGFDAKITGTSNYEDTAGSDIVVITAGIARKPGMSRDDLVSTNEKIMRSVTQEIVKYSPDSIIVVLTNPVDAMTYAVYKESGFPKERVIGQSGVLDTARFRTFVAEELNLSVKDVTGFVLGGHGDDMVPLVRYSYAGGIPLETLIPKERIDAIVERTRKGGGEIVNLLGNGSAYYAPAASLTEMVEAILKDQRRVLPTIAYLEGEYGYEGIYLGVPTIVGGNGLEQIIELELTDYERAQLNKSVESVKNVMKVLS
notes: full-length, C-terminal His6 tag, pET24a, expressed in E. coli BL21(DE3), Ni-NTA and SEC; 33,643 Da printed
As to B3, in “purified protein [4]”, the Michaelis constant (Km) turned out to be 12 µM and the kcat came out at 120 s⁻¹.

B4: O. iheyensis MDH (OceMDH) (Oceanobacillus iheyensis HTE831) (protein)
chain: MGLKRKKISVIGSGFTGATTALMVAQKELGDVVLVDIPDMEDPTKGKALDMAEAAPVQGFDAKITGTSNYADTEGSDLVIITAGIARKPGMSRDDLVNTNANIMKSVTKEIVHYSPNTTIVVLTNPVDAMTYTVFKESGLPKERVIGQSGILDTARFRTFVAEELNLSVKDVTGFVLGGHGDDMVPLIRYSYAGGIPLEKLIPQERLDAIVQRTRTGGGEIVNLLGNGSAYYAPAASLTVMAEAILKDQRRVLPTIAYLEGEYGYQDIYLGVPTILGGEGIEEIIELDLTKEEKAQLDKSADSVKNVLNVLQ
notes: 34,592 Da printed
For the molecule B4, in the data set “purified protein [5]”, the Km is 23 µM and the kcat is 249 s⁻¹.
